In patent US20040175378A1, “Selected antibody compositions and methods for binding to aminophospholipids” (Board of Regents, The University of Texas System, priority 2002, published 2004):

How the values were obtained:
[1] = tested on: orthotopic MDA-MB-435 breast cancer; test: 3G4 and ch3G4 tumor treatment; type: in vivo, mice
Method: Tumors were also established using MD-MBA-435s cells and treated as described above. […] The treatment of large L540 tumors, MDA-MB-231 and MD-MBA-435s tumor cells for 60 days is shown in FIG. 8D, FIG. 8E and FIG. 8F. The antibodies caused tumor vascular injury, thrombosis and necrosis and retarded tumor growth, with no evidence of toxicity.
MD-MBA-435s lucerifase cells were obtained from Dr. Angels Sierra Jimenez, Barcelona, Spain and were grown in 10% DMEM. Mice were injected with tumor cells as described as above, and at 2 weeks post injection, the tumors were measured and the volume recorded. […] Treatment was initiated by IP injection (800 μg) at day 15 and continued with injections of 200 μg every two to three days until the final injection of 400 μg at day 35. Tumor volumes and mouse body weights were measured on injection days. Mice were sacrificed and perfused with saline for 12 minutes. The organs and tumor were removed, snap-frozen in liquid nitrogen and the tumor sectioned for immunohistochemistical analysis.

[2] = tested on: Tissue Factor (TF)-induced coagulation
RSV long strain = test: RSV-infected A-549 cells, plaque assay; details: MOI 1, 100 μg antibody per well
various tumors = test: 3G4 in syngeneic and xenogeneic tumor models, overall

B1: 3G4: mouse IgG3 kappa monoclonal antibody binding PS and other anionic phospholipids; hybridoma ATCC PTA 4545 (antibody, V domains shown)
VH: EVQLQQSGPELEKPGASVKLSCKASGYSFTGYNMNWVKQSHGKSLEWIGHIDPYYGDTSYNQKFRGKATLTVDKSSSTAYMQLKSLTSEDSAVYYCVKGGYYGHWYFDVWGAGTTVTVSSATTTAPSVYPLVP
VL: DIQMTQSPSSLSASLGERVSLTCRASQDIGSSLNWLQQGPDGTIKRLIYATSSLDSGVPKRFSGSRSGSDYSLTISSLESEDFVDYYCLQYVSSPPTFGAGTKLELKRADAAPTVFIFGRIP
- tumor growth as opposed to control ([1]; i.p. 800 μg day 15, 200 μg every two to three days, 400 μg day 35): effectively retarded tumor growth
- growth retardation ([1]; orthotopic MDA-MB-435): 70%
- inhibition of Tissue Factor (TF)-induced coagulation [2]: weak inhibition
- decrease in viral titer (RSV long strain): 2 log10
- toxicity in treated tumor-bearing mice (various tumors; 100 μg i.p. 3 times a week): No toxicity was observed
- localization after intravenous injection (various tumors; mice bearing various tumors): specifically and consistently localized to the tumor, but not to normal organs
